# Laboratory results reported in publication PMC5903968.
# Target: MMP-2 catalytic domain (MMP-2CAT) (UniProt P08253)
# Assay: enzyme inhibition assay
# Chain of MMP-2 catalytic domain (MMP-2CAT) (P08253 30-660): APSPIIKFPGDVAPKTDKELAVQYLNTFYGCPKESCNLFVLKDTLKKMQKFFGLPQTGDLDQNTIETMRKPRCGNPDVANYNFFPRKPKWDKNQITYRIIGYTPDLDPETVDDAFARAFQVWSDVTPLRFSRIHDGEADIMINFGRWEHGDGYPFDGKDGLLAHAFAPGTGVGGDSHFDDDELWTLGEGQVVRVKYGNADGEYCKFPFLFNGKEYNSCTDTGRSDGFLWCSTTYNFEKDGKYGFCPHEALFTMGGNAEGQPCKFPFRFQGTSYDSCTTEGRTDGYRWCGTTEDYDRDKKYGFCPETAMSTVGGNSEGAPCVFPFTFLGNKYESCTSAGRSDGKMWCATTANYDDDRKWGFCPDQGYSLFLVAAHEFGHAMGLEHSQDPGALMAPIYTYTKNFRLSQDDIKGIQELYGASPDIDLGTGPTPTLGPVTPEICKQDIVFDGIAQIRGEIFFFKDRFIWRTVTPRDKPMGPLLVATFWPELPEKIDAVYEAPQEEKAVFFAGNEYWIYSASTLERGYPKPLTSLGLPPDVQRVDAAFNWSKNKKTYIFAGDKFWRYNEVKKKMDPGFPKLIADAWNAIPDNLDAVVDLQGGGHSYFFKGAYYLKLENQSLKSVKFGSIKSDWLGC
substance,measurement,value
"N-terminal domain of TIMP-2 (N-TIMP2), wild type (from UniProt P16035 27-152) (domain or fragment)",Ki,2.65 nM
